Test results reported in patent publication US20220282217A1 (BIONTECH US, published 2022).

Biological target: T1, HLA-A02.01 (human)
T1 construct: Purified class I MHC
Test: pMHC-I dissociation half-life, 125I-b2m
Method: (§1) Briefly, synthetic genes encoding biotinylated MHC-I heavy and light chains are expressed in E. coli and purified from inclusion bodies using standard methods. […] These reactions are carried out in streptavidin coated microplates to bind the biotinylated MHC-I heavy chains to the surface and allow measurement of radiolabeled light chain to monitor complex formation. Dissociation is initiated by addition of higher concentrations of unlabeled light-chain and incubation at 37° C. Stability is defined as the length of time in hours it takes for half of the complexes to dissociate, as measured by scintillation counts.

Row | Binder | Stability (T1/2 (h)) [h]
1 | ALSEHCPTT (also called TP53, CSES) | 27.3
2 | GMNQRPILT (also called TP53, R248Q) | 0
3 | GMNWRPILT (also called TP53, R248W) | 0
4 | LLGRNSFEVC (also called TP53, R273C) | 0
5 | CMGGMNQRPI (also called TP53, R248Q) | 0
6 | NSFEVCVCA (also called TP53, R273C) | 0
7 | GMNQRPILTI (also called TP53, R248Q) | 0.4
8 | LLAFWDSQV (also called TP53, AAVG) | 12.8

Further lines, results first:

Row | Stability (T1/2 (h)) [h] | Binder
9 | 0 | NSFEVHVCA (also called TP53, R273H)
10 | 9.8 | SMLTDSLFL (also called VHL, QCIL)
11 | 0 | SMNRRPILT (also called TP53, G245S)
12 | 0.8 | YMCNSSCMGS (also called TP53, G245S)

Biological target: T2, HLA-B08.01 (human)
T2 construct: Purified class I MHC
Test: pMHC-I dissociation half-life, 125I-b2m
Method: as §1

Row | Binder | Stability (T1/2 (h)) [h]
13 | CMGGMNQRPI (also called TP53, R248Q) | 0
14 | CMGGMNWRPI (also called TP53, R248W) | 0
15 | LPRKPTRAA (also called TP53, QPSL) | 0
16 | CMGSMNRRPI (also called TP53, G245S) | 0
17 | GMNQRPILTI (also called TP53, R248Q) | 0
18 | GMNWRPILTI (also called TP53, R248W) | 0

Now from value to binder:

Row | Stability (T1/2 (h)) [h] | Binder
19 | 0 | NQRPILTII (also called TP53, R248Q)
20 | 0 | SMNRRPILTI (also called TP53, G245S)
21 | 0 | MLTDSLFLPI (also called VHL, QCIL)
22 | 0 | MNWRPILTI (also called TP53, R248W)
23 | 0 | SMNRRPILT (also called TP53, G245S)
24 | 0 | MALNSEALSV (also called TMPRSS2: ERG)
25 | 0 | TQLARFFPI (also called RNF43, RHTP)

Biological target: HLA-A02.01 (human)
Test: pMHC-I complex dissociation at 37 C, 125I-b2m, half-life
Method: as §1

Row | Binder | Stability (T1/2 (h)) [h]
26 | ELFPLIFPA (also called C11orf95: RELA) | 5.1
27 | IQLQDKFEHL (also called EGFR: SEPT14) | 0.2

The remaining lines, values ahead:

Row | Stability (T1/2 (h)) [h] | Binder
28 | 0.6 | QLQDKFEHL (also called EGFR: SEPT14)
29 | 0 | VLERCPHRPI (also called FGFR3, S249C)

Biological target: T3, HLA-B08.01 (human)
T3 construct: As for HLA-A02.01
Test: as above
Method: as §1

Row | Binder | Stability (T1/2 (h)) [h]
30 | LQSLPRFILM (also called ALK, L1196M) | 0
31 | LTINKEEAL (also called BCR: ABL (e13a2, aka b2a2)) | 0
32 | IMQLMPFGCL (also called EGFR, T790M) | 0
33 | ELFPLIFPA (also called C11orf95: RELA) | 0
34 | IQLQDKFEHL (also called EGFR: SEPT14) | 0

Next, values leading:

Row | Stability (T1/2 (h)) [h] | Binder
35 | 0 | MANGSLLNYL (also called BTK, C481S)
36 | 0 | MQLMPFGCLL (also called EGFR, T790M)
37 | 0 | SVCFFFFSV (also called CNOT1(+1))
38 | 0 | QLQDKFEHL (also called EGFR: SEPT14)
39 | 0 | QLIMQLMPF (also called EGFR, T790M)
40 | 0 | SLPRFILMEL (also called ALK, L1196M)
41 | 0 | MQLMPFGCL (also called EGFR, T790M)
42 | 0 | VLERCPHRPI (also called FGFR3, S249C)
43 | 0 | SLLNYLREM (also called BTK, C481S)
44 | 0 | VQLIMQLMPF (also called EGFR, T790M)

Biological target: T1, HLA-A02.01
Test: competition with radiolabeled reference peptide, purified MHC I
Method: (§2) Peptides were incubated at varying concentrations with these complexes for 2 days, and the amount of remaining radiolabeled peptide bound to […] was measured using size exclusion gel-filtration.

Row | Binder | IC50 [nM]
45 | ALSEHCPTT (also called TP53, CSES) | 79
46 | GMNQRPILT (also called TP53, R248Q) | 3030
47 | GMNWRPILT (also called TP53, R248W) | 1130
48 | LLGRNSFEVC (also called TP53, R273C) | 2080
49 | CMGGMNQRPI (also called TP53, R248Q) | 3670
50 | NSFEVCVCA (also called TP53, R273C) | 2200
51 | GMNQRPILTI (also called TP53, R248Q) | 709
52 | LLAFWDSQV (also called TP53, AAVG) | 68

Further lines, results first:

Row | IC50 [nM] | Binder
53 | 503 | NSFEVHVCA (also called TP53, R273H)
54 | 31 | SMLTDSLFL (also called VHL, QCIL)
55 | 3840 | SMNRRPILT (also called TP53, G245S)
56 | 81 | YMCNSSCMGS (also called TP53, G245S)

Biological target: T4, HLA class I molecule B07.02
T4 construct: Purified MHC class I complex; also called HLA-B07:02
Test: competition with radiolabeled reference peptide on purified MHC I
Method: as §2

Row | Binder | IC50 [nM]
57 | EPHLALQPL (also called GATA3 . . ; CSNH) | 17
58 | HVLPEPHLAL (also called GATA3 . . ; CSNH) | 1330

The remaining lines, values ahead:

Row | IC50 [nM] | Binder
59 | 2530 | RPLQTHVLPE (also called GATA3 . . ; CSNH)
60 | 109 | QPVLWTTPPL (also called GATA3 . . ; CSNH)
61 | 2110 | VPAVPFDLHF (also called GATA3 . . ; CSNH)

Biological target: HLA-A02.01 (human)
Test: competition vs radiolabeled reference peptide on purified MHC I, gel filtration
Method: as §2

Row | IC50 [nM] | Binder
62 | 13 | ELFPLIFPA (also called C11orf95: RELA)
63 | 4260 | IQLQDKFEHL (also called EGFR: SEPT14)
64 | 15300 | VLERCPHRPI (also called FGFR3, S249C)
65 | 0.6 | KLFSCLSFLS (also called C15ORF40(+1))

Biological target: T5, HLA-A24.02 (human)
T5 construct: As for HLA-A02.01
Test: as above
Method: as §2

Row | Binder | IC50 [nM]
66 | FFCYILNTMF (also called CNOT1(-1)) | 73.4
67 | EYMANGSLL (also called BTK, C481S) | 5
68 | GFKLFSCLSF (also called C15ORF40(+1)) | 643
69 | KFPELLCVW (also called β2M, . . ; SIRH) | 13.7

Now from value to binder:

Row | IC50 [nM] | Binder
70 | 28.2 | RLSSVLQRF (also called β2M, . . ; SQIS)
71 | 8.7 | RMPPCLANF (also called C15ORF40(+1))
72 | 141 | RRMPPCLANF (also called C15ORF40(+1))
73 | 0.8 | LYGLLLEML (also called ESR1, D538G)

Biological target: T6, HLA-A03.01 (human)
T6 construct: As for HLA-A02.01
Test: as above
Method: as §2

Row | Binder | IC50 [nM]
74 | LFFFFFETK (also called C15ORF40(+1)) | 413
75 | ALFFFFFETK (also called C15ORF40(+1)) | 216
76 | CTTLNSPPLK (also called β2M, . . ; MPAV) | 63.6
77 | KLFSCLSFLS (also called C15ORF40(+1)) | 104
78 | LTSSSREWK (also called β2M, . . ; SIRH) | 118
79 | LSFLSSWDYR (also called C15ORF40(+1)) | 101
80 | LLTSSSREWK (also called β2M, . . ; SIRH) | 1770

Results, then the binder that gave them:

Row | IC50 [nM] | Binder
81 | 9.8 | TTLNSPPLK (also called β2M, . . ; MPAV)
82 | 33 | RMKVPLMK (also called FAM111B(-1))
83 | 14.3 | TTLNSPPLKK (also called β2M, . . ; MPAV)
84 | 5.4 | TLNSPPLKK (also called β2M, . . ; MPAV)
85 | 19 | SLQPPPPGFK (also called C15ORF40(+1))
86 | 35.6 | MANGSLLNY (also called BTK, C481S)
